The values below come from patent EP1720907B1 (MorphoSys AG, dated 2015).

Values joined by “and” are separate entries in the source; they are usually repeats but may differ in a detail not shown here. Identical values can stand only once.

Sequences and labels used below:
T1: human CD38 (human, UniProt P28907 1-300)
T1 sequence: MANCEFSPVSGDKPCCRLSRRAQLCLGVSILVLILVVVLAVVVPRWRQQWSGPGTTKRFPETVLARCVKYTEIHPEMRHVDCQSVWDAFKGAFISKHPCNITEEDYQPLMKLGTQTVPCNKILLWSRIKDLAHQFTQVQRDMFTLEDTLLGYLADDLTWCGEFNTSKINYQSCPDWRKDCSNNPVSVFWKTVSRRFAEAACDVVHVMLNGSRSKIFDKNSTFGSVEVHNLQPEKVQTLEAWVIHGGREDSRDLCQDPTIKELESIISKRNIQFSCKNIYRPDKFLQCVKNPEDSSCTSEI

B1: MOR03080 human IgG1 (antibody, V domains shown)
VH: QVQLVESGGGLVQPGGSLRLSCAASGFTFSSYGMHWVRQAPGKGLEWVSNIYSDGSNTFYADSVKGRFTISRDNSKNTLYLQMNSLRAEDTAVYYCARNMYRWPFHYFFDYWGQGTLVTVSS
VL: DIELTQPPSVSVAPGQTARISCSGDNIGNKYVSWYQQKPGQAPVVVIYGDNNRPSGIPERFSGSNSGNTATLTISGTQAEDEADYYCSSYDSSYFVFGGGTKLTVLG
B2: MOR03079 human IgG1 (antibody, V domains shown)
VH: QVQLVESGGGLVQPGGSLRLSCAASGFTFSNYGMHWVRQAPGKGLEWVSNIRSDGSWTYYADSVKGRFTISRDNSKNTLYLQMNSLRAEDTAVYYCARRYWSKSHASVTDYWGQGTLVTVSS
VL: DIQMTQSPSSLSASVGDRVTITCRASQDISAFLNWYQQKPGKAPKLLIYKVSNLQSGVPSRFSGSGSGTDFTLTISSLQPEDFATYYCQQAYSGSITFGQGTKVEIKR
B3: MOR03077 human IgG1 (antibody, V domains shown)
VH: QVQLVQSGAEVKKPGASVKVSCKASGYTFTSYSINWVRQAPGQGLEWMGYIDPNRGNTNYAQKFQGRVTMTRDTSISTAYMELSSLRSEDTAVYYCAREYIYFIHGMLDFWGQGTLVTVSS
VL: DIVMTQSPLSLPVTPGEPASISCRSSQSLLFIDGNNYLNWYLQKPGQSPQLLIYLGSNRASGVPDRFSGSGSGTDFTLKISRVEAEDVGVYYCQQYSSKSATFGQGTKVEIKR
B4: MOR03100 human IgG1 (antibody, V domains shown)
VH: QVQLVESGGGLVQPGGSLRLSCAASGFTFSSNGMSWVRQAPGKGLEWVSNISYLSSSTYYADSVKGRFTISRDNSKNTLYLQMNSLRAEDTAVYYCARFYGYFNYADVWGQGTLVTVSS
VL: DIELTQPPSVSVAPGQTARISCSGDNIGHYYASWYQQKPGQAPVLVIYRDNDRPSGIPERFSGSNSGNTATLTISGTQAEDEADYYCQSYDYLHDFVFGGGTKLTVLG

In the assay the target is T1, human CD38. The assay is described as follows: cell-based or functional assay.
For the molecule Chimeric OKT10 (antibody), the ADCC EC50 [nM], LP-1 came to 5.23 nM and the ADCC EC50 [nM], RPMI8226 came out at 4.1 nM.

Turning to B1, the “ADCC EC50 [nM], LP-1” value came to 0.17 nM; the “ADCC EC50 [nM], RPMI8226” value was 0.05 nM; the “CDC EC50 [nM], CHO-transfectants” value was 3.2 nM and 2.93 nM.

Regarding B2, the “ADCC EC50 [nM], LP-1” value was 0.09 nM and the “ADCC EC50 [nM], RPMI8226” value stood at 0.04 nM.

As to B3, the “ADCC EC50 [nM], LP-1” value came out at 0.6 nM; the “ADCC EC50 [nM], RPMI8226” value amounted to 0.08 nM; the “CDC EC50 [nM], CHO-transfectants” value was 0.8 nM and 0.94 nM.

Consider B4, for which the “ADCC EC50 [nM], LP-1” value is 1 nM; the “ADCC EC50 [nM], RPMI8226” value was 0.28 nM; the “CDC EC50 [nM], CHO-transfectants” value is 10.9 nM and 13.6 nM.
